Literature values in article PMC4543363.

Tests used:
NF-κB p50 (Homo sapiens) = NF-κB p50 (Homo sapiens) (UniProt P19838)
[1] = target: NF-κB dimer (Homo sapiens) (UniProt P19838)

| Substance | Kd (NF-κB p50 (Homo sapiens)) [nM] | Kd [1] [nM] |
| --- | --- | --- |
| NF-κB p65 (from UniProt Q04206) | 100 |  |
| IκBα (from UniProt P25963) |  | < 0.1 |
